{"source": "paper PMC7812859", "about": "“Structure of SARS-CoV-2 ORF8, a rapidly evolving immune evasion protein” (Proceedings of the National Academy of Sciences of the …, 2020)", "target": "the molecule itself", "experiment": "crystal structure", "data": [{"protein": "SeMet-labeled V32M/L84M ORF8 double mutant (domain or fragment, selenomethionine (SeMet-labeled), also called ORF8 V32M, L84M double-mutant; SeMet-labeled ORF8 double-mutant protein) QECSLQSCTQHQPYMVDDPCPIHFYSKWYIRVGARKSAPLIELCVDEAGSKSPIQYIDIGNYTVSCMPFTINCQEPKLGSLVVRCSFYEDFLEYHDVRVVLDFI", "values": [{"measurement": "binding result", "result": "binds"}]}]}
